T1: R411A-α2 (E. coli class Ia ribonucleotide reductase subunit α2 with the R411A substitution) (E. coli, UniProt P00452 1-761, R411A)
T1 construct: Ribonucleoside-diphosphate reductase 1 subunit alpha (α, NrdA), E. coli; GCG (Ala) inserted at position 411; the construct has an N-terminal (His)6-tag with a 10 amino acid linker; Homodimer (α2); source: E. coli, expressed from pET28a-nrdA, purified by previous protocols; pre-reduced with 30 mM DTT and 15 mM HU before use
T1 sequence: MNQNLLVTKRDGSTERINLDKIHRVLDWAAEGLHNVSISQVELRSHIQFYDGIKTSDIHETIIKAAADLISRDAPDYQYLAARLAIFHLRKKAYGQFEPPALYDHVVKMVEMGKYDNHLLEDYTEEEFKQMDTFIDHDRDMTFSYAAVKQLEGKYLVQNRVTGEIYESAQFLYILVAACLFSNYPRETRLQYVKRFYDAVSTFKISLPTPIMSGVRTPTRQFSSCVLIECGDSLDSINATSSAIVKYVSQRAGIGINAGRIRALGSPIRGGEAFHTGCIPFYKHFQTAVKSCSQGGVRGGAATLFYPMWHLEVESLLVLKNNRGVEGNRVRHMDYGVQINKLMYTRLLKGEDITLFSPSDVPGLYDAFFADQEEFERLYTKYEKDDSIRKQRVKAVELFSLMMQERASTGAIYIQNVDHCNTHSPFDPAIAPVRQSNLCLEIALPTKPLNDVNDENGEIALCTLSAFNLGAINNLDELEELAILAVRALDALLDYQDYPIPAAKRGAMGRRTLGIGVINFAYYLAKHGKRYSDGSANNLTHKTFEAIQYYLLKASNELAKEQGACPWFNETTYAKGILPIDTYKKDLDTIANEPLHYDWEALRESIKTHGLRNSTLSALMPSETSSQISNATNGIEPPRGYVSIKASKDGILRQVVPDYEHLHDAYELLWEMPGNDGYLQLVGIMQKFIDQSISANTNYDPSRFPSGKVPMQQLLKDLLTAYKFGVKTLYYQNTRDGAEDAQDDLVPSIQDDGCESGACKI

T2: R411A-α2, E. coli class Ia ribonucleotide reductase subunit α2 with R411A (E. coli, UniProt P00452 1-761, R411A)
T2 construct: E. coli class Ia ribonucleotide reductase subunit alpha (nrdA) with R411A; a 10 amino acid linker follows the N-terminal (His)6-tag; source: pre-reduced with 30 mM DTT and 15 mM HU before use
T2 sequence (looked up): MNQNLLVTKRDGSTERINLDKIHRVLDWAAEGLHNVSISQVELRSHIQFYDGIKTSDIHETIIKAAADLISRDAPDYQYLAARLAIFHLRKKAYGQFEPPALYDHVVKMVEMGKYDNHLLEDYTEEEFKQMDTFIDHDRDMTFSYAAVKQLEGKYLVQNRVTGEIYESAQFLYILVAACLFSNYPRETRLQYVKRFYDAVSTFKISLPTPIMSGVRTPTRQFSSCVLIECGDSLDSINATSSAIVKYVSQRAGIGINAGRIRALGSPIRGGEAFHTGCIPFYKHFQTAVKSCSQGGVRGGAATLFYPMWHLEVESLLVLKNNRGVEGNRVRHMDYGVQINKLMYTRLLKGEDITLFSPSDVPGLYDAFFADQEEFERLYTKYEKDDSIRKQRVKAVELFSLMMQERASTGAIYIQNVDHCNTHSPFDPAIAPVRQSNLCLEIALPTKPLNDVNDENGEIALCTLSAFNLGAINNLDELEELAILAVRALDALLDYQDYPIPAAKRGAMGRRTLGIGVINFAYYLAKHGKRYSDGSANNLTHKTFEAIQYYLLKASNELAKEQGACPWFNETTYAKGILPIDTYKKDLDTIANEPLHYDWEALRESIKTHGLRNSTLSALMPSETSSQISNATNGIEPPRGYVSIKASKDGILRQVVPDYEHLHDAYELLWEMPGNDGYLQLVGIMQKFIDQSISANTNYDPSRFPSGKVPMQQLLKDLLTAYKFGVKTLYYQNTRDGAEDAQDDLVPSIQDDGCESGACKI

T3: NH2Y731/R411A-α2, E. coli class Ia ribonucleotide reductase subunit α2 with 3-aminotyrosine at 731 and R411A (E. coli, UniProt P00452 1-761, R411A, 3-aminotyrosine (NH2Y) at 731 in place of Y731)
T3 construct: E. coli class Ia ribonucleotide reductase subunit alpha (nrdA) with R411A and the unnatural amino acid 3-aminotyrosine incorporated at position 731; a 10 amino acid linker follows the N-terminal (His)6-tag; With β2, CDP and ATP the 3-aminotyrosine at 731 is oxidised to the radical NH2Y731˙ (ND2Y731˙ in D2O); also called ND2Y731˙/R411A-α2; ND2Y731˙/R411A-α; source: pre-reduced with 30 mM DTT and …
T3 sequence (looked up): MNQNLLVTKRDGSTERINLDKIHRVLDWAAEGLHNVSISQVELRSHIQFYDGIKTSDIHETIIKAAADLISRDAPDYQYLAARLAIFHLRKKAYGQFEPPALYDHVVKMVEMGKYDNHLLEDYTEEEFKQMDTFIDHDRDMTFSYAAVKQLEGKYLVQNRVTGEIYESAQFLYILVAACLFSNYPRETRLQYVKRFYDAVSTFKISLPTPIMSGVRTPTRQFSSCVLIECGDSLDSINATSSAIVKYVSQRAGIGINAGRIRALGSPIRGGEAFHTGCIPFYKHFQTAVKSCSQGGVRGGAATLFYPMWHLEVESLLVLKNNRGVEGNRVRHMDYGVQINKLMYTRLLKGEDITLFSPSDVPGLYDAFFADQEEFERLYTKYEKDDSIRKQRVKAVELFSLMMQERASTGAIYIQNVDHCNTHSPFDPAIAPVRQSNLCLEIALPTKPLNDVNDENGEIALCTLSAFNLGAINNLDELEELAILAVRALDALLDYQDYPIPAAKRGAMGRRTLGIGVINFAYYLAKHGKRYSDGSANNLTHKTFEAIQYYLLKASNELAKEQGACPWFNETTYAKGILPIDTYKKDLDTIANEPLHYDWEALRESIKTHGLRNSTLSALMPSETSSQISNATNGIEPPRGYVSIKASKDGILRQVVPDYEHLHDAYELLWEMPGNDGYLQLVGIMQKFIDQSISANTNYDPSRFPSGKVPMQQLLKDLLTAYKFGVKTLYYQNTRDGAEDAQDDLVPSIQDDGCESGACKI


Tests used:
Conditions in all cases: both partners purified
[1] = biological target: T1, R411A-α2 (E. coli class Ia …); experiment: spectrophotometric competitive inhibition assay (enzyme activity); R411A-α2 used as the inhibitor, 10 nM to 5 μM; D2O assay buffer; relative activities in the presence of inhibitor fit to the standard Kd equation (eq. 1); average of two replicates
[2] = biological target: T2, R411A-α2, E. coli class Ia …; experiment: competitive inhibition assay; Kd for α2 mutant and wt-β2, determined in H2O and D2O buffers by the competitive inhibition assay of ref. 42; details in SI-2, Fig. S2
[3] = biological target: T3, NH2Y731/R411A-α2, E. coli class Ia …; experiment: as above

Binder	Kd [1] [nM]	Kd [2] [nM]	Kd [3] [nM]
wt-β2 (E. coli class Ia ribonucleotide reductase subunit β2, wild type) (enzyme, UniProt P69924 1-376, looked up, tyrosyl radical at Y122 (1.2 Y•/β2), di-iron cofactor, Ribonucleoside-diphosphate reductase 1 subunit beta (β, NrdB), E. coli, wild type; Y122 is Y123 in P69924); Homodimer (β2); source: expressed and purified by standard protocols (7000 nmol min^-1 mg^-1, 1.2 Y•/β2)) MAYTTFSQTKNDQLKEPMFFGQPVNVARYDQQKYDIFEKLIEKQLSFFWRPEEVDVSRDRIDYQALPEHEKHIFISNLKYQTLLDSIQGRSPNVALLPLISIPELETWVETWAFSETIHSRSYTHIIRNIVNDPSVVFDDIVTNEQIQKRAEGISSYYDELIEMTSYWHLLGEGTHTVNGKTVTVSLRELKKKLYLCLMSVNALEAIRFYVSFACSFAFAERELMEGNAKIIRLIARDEALHLTGTQHMLNLLRSGADDPEMAEIAEECKQECYDLFVQAAQQEKDWADYLFRDGSMIGLNKDILCQYVEYITNIRMQAVGLDLPFQTRSNPIPWINTWLVSDNVQVAPQEVEVSSYLVGQIDSEVDTDDLSNFQL	900 ± 190		
wt-β2, E. coli class Ia ribonucleotide reductase subunit β2 (enzyme, UniProt P69924 1-376, looked up, tyrosyl radical at Y122 (1.2 Y˙/β2), E. coli class Ia ribonucleotide reductase subunit beta, with the di-iron tyrosyl radical cofactor (FeIII2–Y122˙)) MAYTTFSQTKNDQLKEPMFFGQPVNVARYDQQKYDIFEKLIEKQLSFFWRPEEVDVSRDRIDYQALPEHEKHIFISNLKYQTLLDSIQGRSPNVALLPLISIPELETWVETWAFSETIHSRSYTHIIRNIVNDPSVVFDDIVTNEQIQKRAEGISSYYDELIEMTSYWHLLGEGTHTVNGKTVTVSLRELKKKLYLCLMSVNALEAIRFYVSFACSFAFAERELMEGNAKIIRLIARDEALHLTGTQHMLNLLRSGADDPEMAEIAEECKQECYDLFVQAAQQEKDWADYLFRDGSMIGLNKDILCQYVEYITNIRMQAVGLDLPFQTRSNPIPWINTWLVSDNVQVAPQEVEVSSYLVGQIDSEVDTDDLSNFQL		940 ± 330	8 ± 1

Source: article PMC5968753, “Radical transfer in E. coli ribonucleotide reductase: a NH2Y731/R411A-α mutant unmasks a new conformation of the pathway residue 731† †Electronic supplementary information (ESI) available. See DOI: 10.1039/c5sc03460d” (Chemical Science, 2015)
